Laboratory results as given in publication PMC2997714 (Developmental cell, 2009).
Where “and” joins values, the source holds several entries; their conditions need not be identical. Equal entries are not always repeated.

Target: the molecule itself
Assay: cross-linking

B1: recombinant His-klp9p (natural protein, S. pombe (fission yeast), UniProt Q1MTQ7 1-633, looked up)
chain: MIQIFLRVKKAQPSSDASNKYGFLTVLNDYEILLESPEDSHAYRVSKSKTLEKASFTKVFPPSCTQLDVFSTICAPLIADSLVNMNDTLLFTLGVSGAGKTYTLFGPSDRPGVAFLALDALFYAIKGREASPQTVEFLRSQLEKCKIVEASKFLRGEAPLDIKVPNTEYYASHFPKIEEKNYQYAIYLSFAEIYNDRIFDLLEKASFFGHRHALSLKKSSTSDKKSIAGIQKVFVSNTTEAYKLIQKVLQLRKSTSTKSNSVSSRSHLIMSIELFKVCTKSNKFESCQIDLVDLAGSERTRSAETSGLLLREGASINRSLLTLGQCLEALRRKHEGKQHIIPFRQSKLTELLFHSGHLSGLAGINMLVNIDPFGSFDENAQVMRYSANAREILPPPLNENSGSQSPSHSLLQKSKNTSSTKALTSHLEQLQQENQQLRMLLADADSEMMNLEYEIRQQMTREMEERVSEVERTFLTKLLEESAQGIEYTDQKLEKMGGWMKKLQDENSEKTETIAQLEQIIEELHEELRSLEEESIKESSATQQNENQHKRSSRKLLYEDKQAIQEAHTINTKRKLWPQSTLIQAPNSDDEENVPSPSPKKKVVSPIKPLSPSRRPPLTSLYSGTTDIDINEL
Q: Which “stoichiometry N” value does the source give for B1 here?
A: Its value is 2 and 4.
